In the assay the target is OsCBMIP-His (OsRMC-His), secreted from rice suspension-cultured cells (rice). Description: BLI. A general note: Biolayer interferometry detects binding as a change in optical thickness at a sensor tip.

The values below come from paper doi:10.1101/2021.12.31.474618.

“MoCel6A as used for binding kinetics (BLItz) (enzyme)”: the equilibrium dissociation constant (Kd) (in general, the equilibrium constant for the complex coming apart) worked out at 21.9 nM; the off-rate constant (koff) (in general, the first-order rate constant of dissociation) was 0.000845 s⁻¹; the association rate constant (kon) (usually the second-order rate constant of association) was found to be 38900 M⁻¹ s⁻¹.
